The values below come from patent US5221606A, “Reagent and kit for enzyme assay comprising a substrate consonant with given enzyme to be assayed” (King's College London, priority 1987, dated 1993).

Broadly, the Km is the substrate concentration at which the rate is half of its maximum.

Substrate in this data set: CCC(=O)Oc1c(OC)cc(C=C2SC(=S)N(CC(=O)O)C2=O)cc1OC
Kind of data set: assay of arylesterase in serum. In kind it is biochemical. As to conditions: other: borate buffer pH 8, 37.0 °C. On the procedure: The serum samples were diluted by a factor of 10 prior to the assay. The substrate solution and the diluted sera were then preincubated at 37° C. in a water bath. Aliquots (0.75 ml) of the substrate solution were then pipetted into small plastic tubes (2 ml capacity), and 0.05 ml samples of the sera were added to each of the substrate aliquots and shaken vigorously to ensure adequate mixing. A blank was run by substituting water (0.05 ml) for the serum. The reaction was stopped after 10 min by the addition of the stopping buffer (0.25 ml) [prepared by dissolving DABCO (22.4 g) in water (200 ml) and adjusting the pH to 10 by the addition of a little conc. hydrochloric acid. The resulting mixture was then made up to 1000 ml with acetone]. The absorption (A) was then measured at 529 nm and the enzyme activity calculated on the basis of an εmax =47,500. [formula] where t=time of incubation in hours

B1: arylesterase (Homo sapiens) (protein)
chain: MAKLIALTLLGMGLALFRNHQSSYQTRLNALREVQPVELPNCNLVKGIETGSEDLEILPNGLAFISSGLKYPGIKSFNPNSPGKILLMDLNEEDPTVLELGITGSKFDVSSFNPHGISTFTDEDNAMYLLVVNHPDAKSTVELFKFQEEEKSLLHLKTIRHKLLPNLNDIVAVGPEHFYGTNDHYFLDPYLQSWEMYLGLAWSYVVYYSPSEVRVVAEGFDFANGINISPDGKYVYIAELLAHKIHVYEKHANWTLTPLKSLDFNTLVDNISVDPETGDLWVGCHPNGMKIFFYDSENPPASEVLRIQNILTEEPKVTQVYAENGTVLQGSTVASVYKGKLLIGTVFHKALYCEL
notes: The serum samples were diluted by a factor of 10 prior to the assay; from tissue; host or cells: serum
For the protein B1, the Km amounted to 25 µM.
